According to article PMC6898792 (2019):

Assays:
VEGFR2 (dimer) = VEGFR2 (dimer) (Homo sapiens, UniProt P35968); experiment: global fit
VEGFR2 (monomer) = VEGFR2 (monomer) (Homo sapiens, UniProt P35968); experiment: global fit
Chain of VEGFR2 (monomer) (P35968 20-1356): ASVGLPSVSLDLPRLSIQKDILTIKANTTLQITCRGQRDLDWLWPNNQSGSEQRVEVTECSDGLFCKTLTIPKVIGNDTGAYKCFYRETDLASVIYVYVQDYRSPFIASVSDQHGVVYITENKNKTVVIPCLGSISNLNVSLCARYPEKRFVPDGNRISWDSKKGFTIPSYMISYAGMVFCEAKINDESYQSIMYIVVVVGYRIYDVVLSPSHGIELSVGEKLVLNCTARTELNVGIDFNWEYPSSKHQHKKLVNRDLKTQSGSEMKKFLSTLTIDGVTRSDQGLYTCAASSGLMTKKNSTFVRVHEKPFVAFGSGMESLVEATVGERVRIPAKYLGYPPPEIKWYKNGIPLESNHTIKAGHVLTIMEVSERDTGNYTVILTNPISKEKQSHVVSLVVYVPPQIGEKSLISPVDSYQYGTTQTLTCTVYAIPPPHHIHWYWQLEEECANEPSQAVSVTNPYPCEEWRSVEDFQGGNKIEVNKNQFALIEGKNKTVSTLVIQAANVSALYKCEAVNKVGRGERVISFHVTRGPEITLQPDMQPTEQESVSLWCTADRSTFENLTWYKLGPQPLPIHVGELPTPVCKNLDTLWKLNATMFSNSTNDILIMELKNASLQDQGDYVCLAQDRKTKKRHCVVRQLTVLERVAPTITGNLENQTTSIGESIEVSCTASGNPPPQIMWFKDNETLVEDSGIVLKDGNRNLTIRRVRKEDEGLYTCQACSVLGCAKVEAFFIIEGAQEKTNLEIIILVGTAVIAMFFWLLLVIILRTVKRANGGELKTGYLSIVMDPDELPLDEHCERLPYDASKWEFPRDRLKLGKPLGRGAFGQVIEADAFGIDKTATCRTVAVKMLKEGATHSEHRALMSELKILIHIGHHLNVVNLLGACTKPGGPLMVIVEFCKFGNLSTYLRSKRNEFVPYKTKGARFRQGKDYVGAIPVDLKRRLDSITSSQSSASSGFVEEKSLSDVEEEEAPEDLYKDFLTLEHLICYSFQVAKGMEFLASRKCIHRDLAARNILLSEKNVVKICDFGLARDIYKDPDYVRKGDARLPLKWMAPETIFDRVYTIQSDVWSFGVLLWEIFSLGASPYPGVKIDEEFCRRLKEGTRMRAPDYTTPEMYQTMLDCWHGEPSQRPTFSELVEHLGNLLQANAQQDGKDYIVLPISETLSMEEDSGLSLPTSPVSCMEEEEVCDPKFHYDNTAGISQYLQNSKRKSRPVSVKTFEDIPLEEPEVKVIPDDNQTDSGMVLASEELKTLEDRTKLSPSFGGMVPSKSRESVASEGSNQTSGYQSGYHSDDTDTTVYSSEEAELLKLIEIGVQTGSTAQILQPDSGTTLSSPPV

Chain of VEGFR2 (dimer) (P35968 20-1356): as above

Kd (VEGFR2 (dimer)): 0.23 nM
Kd (VEGFR2 (monomer)): 10 nM
B1: VEGF (protein)
chain: MTDRQTDTAPSPSYHLLPGRRRTVDAAASRGQGPEPAPGGGVEGVGARGVALKLFVQLLGCSRFGGAVVRAGEAEPSGAARSASSGREEPQPEEGEEEEEKEEERGPQWRLGARKPGSWTGEAAVCADSAPAARAPQALARASGRGGRVARRGAEESGPPHSPSRRGSASRAGPGRASETMNFLLSWVHWSLALLLYLHHAKWSQAAPMAEGGGQNHHEVVKFMDVYQRSYCHPIETLVDIFQEYPDEIEYIFKPSCVPLMRCGGCCNDEGLECVPTEESNITMQIMRIKPHQGQHIGEMSFLQHNKCECRPKKDRARQEKKSVRGKGKGQKRKRKKSRYKSWSVPCGPCSERRKHLFVQDPQTCKCSCKNTDSRCKARQLELNERTCRCDKPRR
